Reference: paper PMC13299607

B1: YFP-RepoMan-wt [not stated] / endogenous PP2A-B56γ [human (endogenous in HeLa)] (parent)
chain 1: MDANSKDKPPETKESAMNNAGNASFILGTGKIVTPQKHAELPPNPCTPDTFKSPLNFSTVTVEQLGITPESFVRNSAGKSSSYLKKCRRRSAVGARGSPETNHLIRFIARQQNIKNARKSPLAQDSPSQGSPALYRNVNTLRERISAFQSAFHSIKENEKMTGCLEFSEAGKESEMTDLTRKEGLSACQQSGFPAVLSSKRRRISYQRDSDENLTDAEGKVIGLQIFNIDTDRACAVETSVDLSEISSKLGSTQSGFLVEESLPLSELTETSNALKVADCVVGKGSSDAVSPDTFTAEVSSDAVPDVRSPATPACRRDLPTPKTFVLRSVLKKPSVKMCLESLQEHCNNLYDDDGTHPSLISNLPNCCKEKEAEDEENFEAPAFLNMRKRKRVTFGEDLSPEVFDESLPANTPLRKGGTPVCKKDFSGLSSLLLEQSPVPEPLPQPDFDDKGENLENIEPLQVSFAVLSSPNKSSISETLSGTDTFSSSNNHEKISSPKVGRITRTSNRRNQLVSVVEESVCNLLNTEVQPCKEKKINRRKSQETKCTKRALPKKSQVLKSCRKKKGKGKKSVQKSLYGERDIASKKPLLSPIPELPEVPEMTPSIPSIRRLGSGYFSSNGKLEEVKTPKNPVKRKDLLRHDPDLHMHQGYDKYDVSEFCSYIKSSSSLGNATSDEDPNTNIMNINENKNIPKAKNKSESENEPKAGTDSPVSCASVTEERVASDSPKPALTLQQGQEFSAGGQNAENLCQFFKISPDLNIKCERKDDFLGAAEGKLQCNRLMPNSQKDCHCLGDVLIENTKESKSQSEDLGRKPMESSSVVSCRDRKDRRRSMCYSDGRSLHLEKNGNHTPSSSVGSSVEISLENSELFKDLSDAIEQTFQRRNSETKVRRSTRLQKDLENEGLVWISLPLPSTSQKAKRRTICTFDSSGFESMSPIKETVSSRQKPQMAPPVSDPENSQGPAAGSSDEPGKRRKSFCISTLANTKATSQFKGYRRRSSLNGKGESSLTALERIEHNGERKQ
chain 2: not shown

Variants of: B1
Test: proximity ligation assay (PLA)
Conditions: with endogenous PP2A-B56γ [human (endogenous in HeLa)]; asynchronous; endogenous RepoMan knocked down using siRM; Anti-GFP+B56γ antibodies; median shown in red; read off a plot

response (PLA foci per cell)	Variant
10	chain 1 P604A

Same assay, conditions: with endogenous PP2A-B56γ [human (endogenous in HeLa)]; monastrol arrested; endogenous RepoMan knocked down using siRM; Anti-GFP+B56γ antibodies; median shown in red; read off a plot

response (PLA foci per cell)	Variant
19	chain 1 P604A

Variants of: B1
Test: immunofluorescence, dCas9-DARPin recruitment to ectopic foci on chr 1
Conditions: with mCherry-B56γ; prometaphase-arrested cells; average of 3 independent experiments, 58 (wt) 60 (P604A) cells; read off a plot

response	Variant
0.45	chain 1 P604A
